We go through five proteins from patent US20150140169.

The target of the series is T1, alpha-s1 casein from Bos taurus.
T1 chain: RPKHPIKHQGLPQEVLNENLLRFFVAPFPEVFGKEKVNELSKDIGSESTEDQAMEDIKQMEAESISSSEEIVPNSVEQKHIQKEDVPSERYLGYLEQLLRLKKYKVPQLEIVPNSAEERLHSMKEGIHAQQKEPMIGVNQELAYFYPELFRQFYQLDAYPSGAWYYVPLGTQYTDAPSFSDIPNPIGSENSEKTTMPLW

Numbering of substitutions follows the chain as printed. Numbers in names are those of the source.

B1: bovine chymosin B variant #103 (A51I, K221T) (protein)
chain: GEVASVPLTNYLDSQYFGKIYLGTPPQEFTVLFDTGSSDFWVPSIYCKSNICKNHQRFDPRKSSTFQNLGKPLSIHYGTGSMQGILGYDTVTVSNIVDIQQTVGLSTQEPGDVFTYAEFDGILGMAYPSLASEYSIPVFDNMMNRHLVAQDLFSVYMDRNGQESMLTLGAIDPSYYTGSLHWVPVTVQQYWQFTVDSVTISGVVVACEGGCQAILDTGTSTLVGPSSDILNIQQAIGATQNQYGEFDIDCDNLSYMPTVVFEINGKMYPLTPSAYTSQDQGFCTSGFQSENHSQKWILGDVFIREYYSVFDRANNLVGLAKAI
Take B1: the “hydrolysis of the first cut in alpha-s1-casein” value is reported as “show a clear hydrolysis of the first cut in alpha-s1-casein, leading to a rapid formation of fragment alpha-s1-I casein”; the small, 16 hours, 30° C. was found to be 1.3e+06 Volume; the αs1-I CN, 16 hours, 30° C. amounted to 2.03e+07 Volume; the αs1 CN, 16 hours, 30° C. turned out to be 1.4e+06 Volume.

B2: bovine chymosin B variant #62 (V223Q) (protein)
chain: B1 chain with I51A, T221K, V223Q
With B2, the “hydrolysis of the first cut in alpha s1-casein” value was “variant 62 shows slow hydrolysis of the first cut in alpha s1-casein, and therefore slow accumulation of alpha s1-I casein”; the small, 6 hours, 11° C. stood at 0 Volume; the small, 24 hours, 11° C. turned out to be 4.1e+06 Volume; the αs1-I CN, 6 hours, 11° C. amounted to 1.29e+07 Volume. Also, the αs1-I CN, 24 hours, 11° C. stood at 1.99e+07 Volume; the αs1 CN, 6 hours, 11° C. turned out to be 2.67e+07 Volume; the αs1 CN, 24 hours, 11° C. was 1.34e+07 Volume.

B3: bovine chymosin B variant #110 (A51V, K221V, N50D, N144H, N160D, S201D, Q242E, M267E, Q280E) (protein)
chain: B1 chain with N50D, I51V, N144H, N160D, S201D, T221V, Q242E, M267E, Q280E
Take B3: the “hydrolysis of the first cut in alpha-s1-casein” value is “show a clear hydrolysis of the first cut in alpha-s1-casein, leading to a rapid formation of fragment alpha-s1-I casein”; the small, 16 hours, 30° C. is 1.4e+06 Volume; the αs1-I CN, 16 hours, 30° C. is 2.26e+07 Volume; the αs1 CN, 16 hours, 30° C. amounted to 3e+06 Volume.

B4: camel chymosin variant #136 (F223C) (protein)
chain: GKVAREPLTSYLDSQYFGKIYIGTPPQEFTVVFDTGSSDLWVPSIYCKSNVCKNHHRFDPRKSSTFRNLGKPLSIHYGTGSMEGFLGYDTVTVSNIVDPNQTVGLSTEQPGEVFTYSEFDGILGLAYPSLASEYSVPVFDNMMDRHLVARDLFSVYMDRNGQGSMLTLGAIDPSYYTGSLHWVPVTLQQYWQFTVDSVTINGVAVACVGGCQAILDTGTSVLCGPSSDILKIQMAIGATENRYGEFDVNCGNLRSMPTVVFEINGRDYPLSPSAYTSKDQGFCTSGFQGDNNSELWILGDVFIREYYSVFDRANNRVGLAKAI
B4 showed a (αSN1-1)/(αSN1), 6 hours, 11° C. of 0.7; a (αSN1-1)/(αSN1), 24 hours, 11° C. of 1.9; a αs1-I CN, 6 hours, 11° C. of 2.06e+07 Volume; a αs1-I CN, 24 hours, 11° C. of 2.03e+07 Volume. Moreover, the αs1 CN, 6 hours, 11° C. stood at 2.86e+07 Volume and the αs1 CN, 24 hours, 11° C. worked out at 1.06e+07 Volume.

B5: camel chymosin variant #137 (F223D) (protein)
chain: B4 chain with C223D
The protein B5 showed a (αSN1-1)/(αSN1), 6 hours, 11° C. of 0.7; a (αSN1-1)/(αSN1), 24 hours, 11° C. of 2.3; a αs1-I CN, 6 hours, 11° C. of 2.26e+07 Volume; a αs1-I CN, 24 hours, 11° C. of 2.55e+07 Volume. Also, the αs1 CN, 6 hours, 11° C. was 3.14e+07 Volume and the αs1 CN, 24 hours, 11° C. was 1.1e+07 Volume.
